Experimental data taken from US8093212B2, “Methods of treating nerve-related vision disorders by an insulinomimetic agent” (The Penn State Research Foundation, priority 2002, dated 2012).
Entries after “also recorded” stand apart in the source; their conditions may differ.

Tests used:
[1] = target: T1, insulin receptor beta-subunit (IRβ) (Rattus norvegicus, UniProt P15127); test: Intraportal insulin injection: retina IRβ tyrosine phosphorylation (PY Western blot); type: in vivo, Sprague-Dawley rats; parameters: hindquarter skeletal muscle and retina were snap-frozen under liquid nitrogen; from tissue; host or cells: rat retina; settings: 500 μg insulin bolus via portal vein, fasted rats
Procedure: (§1) Intraportal insulin injection was performed to determine if a single bolus insulin injection, and therefore an acute elevation in circulating insulin, could activate retinal insulin receptors (IR) in vivo as it does in other tissues. Intraportal insulin injection was conducted as follows. Male Sprague-Dawley rats (Charles River, Mass.) weighing 200 350 g were fasted 18 hours prior to being anesthetized with a 10:1 ketamine:xylazine cocktail (53.5 mg/kg ketamine and 5.33 mg/kg xylazine) administered by intramuscular injection. The fasted rats were administered a 500 μg bolus of insulin, nothing (sham), or vehicle (0.9% saline) via the portal vein. […]
(§2) Tissue lysates were immunoprecipitated and immunoblotted as described by Barber et al. (2001, J. Biol. Chem. 276: 32814 32831). Tissues were homogenized in an immunoprecipitation (IP) lysis buffer (consisting of 50 mM HEPES, pH 7.3, 137 mM NaCl, 1 mM MgCl2, 2 mM NaVO4, 10 mM Na2H2P2O7, 10 mM NaF, 2 mM EDTA, 2 mM PMSF, 10 mM benzamidine, 10% glycerol, 1% NP-40, and 1 protease inhibitor tablet (Boehringer-Mannheim) per 10 mL of buffer. Homogenates were rocked 15 minutes at 4° C. and then centrifuged at 14,000 rpm at 4° C. Prior to immunoprecipitation and immunoblotting, the resulting supernatant was subjected to protein assay (Bio-Rad) and quantification. […]

[2] = target: T1, insulin receptor beta-subunit (IRβ); test: Intraportal insulin injection: muscle IRβ tyrosine phosphorylation (PY Western blot); type: in vivo, Sprague-Dawley rats; parameters: hindquarter skeletal muscle and retina were snap-frozen under liquid nitrogen; from tissue; host or cells: rat retina; settings: 500 μg insulin bolus via portal vein
Procedure: Intraportal insulin injection was performed to determine if a single bolus insulin injection, and therefore an acute elevation in circulating insulin, could activate retinal insulin receptors (IR) in vivo as it does in other tissues. Intraportal insulin injection was conducted as follows. Male Sprague-Dawley rats (Charles River, Mass.) weighing 200 350 g were fasted 18 hours prior to being anesthetized with a 10:1 ketamine:xylazine cocktail (53.5 mg/kg ketamine and 5.33 mg/kg xylazine) administered by intramuscular injection. The fasted rats were administered a 500 μg bolus of insulin, nothing (sham), or vehicle (0.9% saline) via the portal vein. At 15, 30, 45 and 60 minutes post injection (shown in FIG. 2A), hindquarter skeletal muscle and retina were snap-frozen under liquid nitrogen, and then stored at −80° C. pending analysis by immunoprecipitation and immunoblotting. There was no difference in insulin receptor beta-subunit (IRβ) phosphorylation between vehicle (V) and insulin (I) injection.
Tissue lysates were immunoprecipitated and immunoblotted as described by Barber et al. (2001, J. Biol. Chem. 276: 32814 32831). Tissues were homogenized in an immunoprecipitation (IP) lysis buffer (consisting of 50 mM HEPES, pH 7.3, 137 mM NaCl, 1 mM MgCl2, 2 mM NaVO4, 10 mM Na2H2P2O7, 10 mM NaF, 2 mM EDTA, 2 mM PMSF, 10 mM benzamidine, 10% glycerol, 1% NP-40, and 1 protease inhibitor tablet (Boehringer-Mannheim) per 10 mL of buffer. Homogenates were rocked 15 minutes at 4° C. and then centrifuged at 14,000 rpm at 4° C. Prior to immunoprecipitation and immunoblotting, the resulting supernatant was subjected to protein assay (Bio-Rad) and quantification.
Immunoprecipitations were performed as follows. […] Fifty μg of protein per sample were analyzed by SDS-polyacrylamide gel electrophoresis (SDS-PAGE). […] Positive signals were detected with […] (ECL) kits (Cell Signaling) and electrochemifluoresence (ECF) kits (Amersham) each performed according to each manufacturer's protocol. […]

[3] = system: IR and Akt kinase pathway; test: Subconjunctival insulin administration: retinal IR and Akt kinase pathway activation; type: in vivo, Sprague-Dawley rats
Akt = test: Intraportal insulin injection: retinal Akt (serine 473) phosphorylation Western blot; type: in vivo, Sprague-Dawley rats; settings: retina, 45 minutes post-injection, 500 μg insulin bolus via portal vein
Procedure: as §1, §2

[4] = target: T2, insulin-like growth factor I receptor (IGF-IRβ) (Rattus norvegicus, UniProt P24062); test: Retinal explants: IGF-IRβ tyrosine phosphorylation; type: cell-based
T2 construct: from tissue; host or cells: rat retinal explants
Procedure: (§3) A tissue explant culture system was used to characterize insulin-signaling transduction in retina without the hindrance of the blood retinal barrier present in whole animal models. Such a tissue explant culture system was developed as follows. Rats as described in Examples 1 and 2 were anesthetized using sodium pentobarbital ([…]), and then decapitated upon loss of motor reflexes. Rat retinas were removed by cutting across the cornea, removing the lens, and squeezing the eyeball to rapidly extract the retina. Retinas were pre-incubated in MEM (Sigma) supplemented with 5 mM pyruvate and 10 mM HEPES for 15 minutes at 37° C., 5% CO2, and with gentle shaking. Ten nM insulin or vehicle was added following pre-incubation. At 2, 5, 15, and 30 minutes after insulin addition, retinas were snap-frozen in liquid nitrogen for future use.
Retinas were treated with either 1.3 nM IGF-1 or 0, 1, 10, 100, and 1000 nM insulin, and then retinal lysates were immunoprecipitated with an insulin-like growth factor I receptor (IGF-IRβ)-specific antibody, followed by PY Western blotting (shown in FIG. 6). The IGF1-R was immunoprecipitated and PY Western blotting performed as described above.

[5] = 0.0325 U/100 g insulin, subconjunctival space
Description: This route of administration bypasses the BRB for a more direct route of insulin action on retina. […] The retina was processed for IRβ PY content as described in Example 1.

[6] = target: T1, insulin receptor beta-subunit (IRβ); test: Retinal tissue explant culture: IRβ tyrosine phosphorylation; type: cell-based; parameters: from tissue; host or cells: rat retinal explants; settings: 10 nM insulin
Procedure: as §3
To examine the time course of insulin signaling events in the tissue, insulin-treated retinas were compared to retinas that received vehicle (0.9% saline) and to untreated retinas. Tissues were analyzed by immunoprecipitation and Western blotting as described in Example 1.

T1 sequence (P15127 764-1383 limits assumed): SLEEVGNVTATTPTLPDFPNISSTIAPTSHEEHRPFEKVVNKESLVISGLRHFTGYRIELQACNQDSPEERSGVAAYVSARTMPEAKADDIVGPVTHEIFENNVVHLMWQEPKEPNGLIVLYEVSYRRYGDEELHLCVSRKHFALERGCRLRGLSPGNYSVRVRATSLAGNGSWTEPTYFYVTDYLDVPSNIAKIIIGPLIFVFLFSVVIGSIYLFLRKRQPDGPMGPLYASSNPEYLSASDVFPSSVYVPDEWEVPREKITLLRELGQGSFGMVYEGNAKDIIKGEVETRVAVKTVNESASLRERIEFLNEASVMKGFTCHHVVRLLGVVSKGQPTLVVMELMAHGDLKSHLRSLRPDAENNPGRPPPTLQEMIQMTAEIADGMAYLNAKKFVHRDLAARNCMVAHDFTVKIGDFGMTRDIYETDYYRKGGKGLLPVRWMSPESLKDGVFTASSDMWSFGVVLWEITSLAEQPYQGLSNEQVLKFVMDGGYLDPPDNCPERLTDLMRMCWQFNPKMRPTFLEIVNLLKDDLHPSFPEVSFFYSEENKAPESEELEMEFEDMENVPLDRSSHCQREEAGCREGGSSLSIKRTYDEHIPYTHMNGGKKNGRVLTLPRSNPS
T1 sequence (P15127 27-759 limits assumed): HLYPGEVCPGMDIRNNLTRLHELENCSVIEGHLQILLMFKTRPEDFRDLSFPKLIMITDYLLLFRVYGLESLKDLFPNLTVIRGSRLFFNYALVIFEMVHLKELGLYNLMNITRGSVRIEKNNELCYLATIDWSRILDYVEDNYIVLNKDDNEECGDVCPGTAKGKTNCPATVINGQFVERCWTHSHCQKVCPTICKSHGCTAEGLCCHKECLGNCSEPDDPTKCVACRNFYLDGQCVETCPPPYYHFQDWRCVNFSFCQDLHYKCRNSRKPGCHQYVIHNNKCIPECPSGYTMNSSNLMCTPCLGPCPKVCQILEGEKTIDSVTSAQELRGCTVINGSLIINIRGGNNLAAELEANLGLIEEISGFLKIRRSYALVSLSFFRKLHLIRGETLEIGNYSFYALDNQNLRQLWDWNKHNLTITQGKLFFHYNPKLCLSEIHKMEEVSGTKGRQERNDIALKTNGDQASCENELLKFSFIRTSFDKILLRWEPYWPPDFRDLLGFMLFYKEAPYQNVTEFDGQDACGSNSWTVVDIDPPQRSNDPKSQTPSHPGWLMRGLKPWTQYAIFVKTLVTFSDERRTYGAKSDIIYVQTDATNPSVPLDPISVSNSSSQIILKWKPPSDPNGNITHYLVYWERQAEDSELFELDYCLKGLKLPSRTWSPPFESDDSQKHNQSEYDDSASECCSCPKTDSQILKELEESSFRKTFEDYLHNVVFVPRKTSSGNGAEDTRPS
T2 sequence (P24062 742-1370 limits assumed): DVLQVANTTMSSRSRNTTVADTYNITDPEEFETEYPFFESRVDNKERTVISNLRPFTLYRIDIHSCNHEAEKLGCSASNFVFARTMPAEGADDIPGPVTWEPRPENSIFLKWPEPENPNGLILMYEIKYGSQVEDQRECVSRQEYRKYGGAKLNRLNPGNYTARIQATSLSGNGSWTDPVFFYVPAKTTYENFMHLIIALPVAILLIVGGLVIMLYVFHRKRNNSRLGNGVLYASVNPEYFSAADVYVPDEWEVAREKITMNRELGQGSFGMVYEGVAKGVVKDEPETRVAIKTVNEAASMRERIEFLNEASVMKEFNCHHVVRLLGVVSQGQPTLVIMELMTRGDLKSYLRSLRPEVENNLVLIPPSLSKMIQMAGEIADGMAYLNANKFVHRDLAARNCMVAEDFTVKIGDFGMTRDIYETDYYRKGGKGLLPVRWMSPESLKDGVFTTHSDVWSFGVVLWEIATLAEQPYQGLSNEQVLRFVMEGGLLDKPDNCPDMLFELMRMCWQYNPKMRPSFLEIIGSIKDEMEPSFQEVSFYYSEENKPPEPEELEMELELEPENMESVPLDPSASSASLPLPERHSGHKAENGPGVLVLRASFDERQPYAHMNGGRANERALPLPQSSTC
T2 sequence (P24062 31-737 limits assumed): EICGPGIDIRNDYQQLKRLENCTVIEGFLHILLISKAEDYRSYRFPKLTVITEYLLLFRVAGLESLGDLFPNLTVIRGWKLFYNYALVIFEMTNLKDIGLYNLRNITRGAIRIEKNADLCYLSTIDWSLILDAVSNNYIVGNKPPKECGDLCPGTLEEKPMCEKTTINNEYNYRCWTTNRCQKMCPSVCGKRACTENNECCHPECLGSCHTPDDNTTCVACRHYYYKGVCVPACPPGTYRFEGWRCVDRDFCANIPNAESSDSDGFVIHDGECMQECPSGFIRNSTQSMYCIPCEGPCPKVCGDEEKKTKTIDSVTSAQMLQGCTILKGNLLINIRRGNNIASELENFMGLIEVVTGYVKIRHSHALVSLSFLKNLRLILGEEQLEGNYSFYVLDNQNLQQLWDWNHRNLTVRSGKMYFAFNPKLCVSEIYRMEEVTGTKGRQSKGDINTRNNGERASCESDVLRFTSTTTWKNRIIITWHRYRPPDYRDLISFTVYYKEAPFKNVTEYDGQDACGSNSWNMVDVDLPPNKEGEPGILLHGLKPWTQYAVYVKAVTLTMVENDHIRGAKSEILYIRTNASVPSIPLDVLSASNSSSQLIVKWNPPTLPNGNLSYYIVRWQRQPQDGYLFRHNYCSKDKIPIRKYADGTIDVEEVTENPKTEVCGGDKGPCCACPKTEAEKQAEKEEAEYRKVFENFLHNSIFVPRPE

Question: For insulin, which “time of maximal retinal IRβ tyrosine phosphorylation” value [1] is on record?
Answer: The value was 45 min.

Question: And the “time until retinal IRβ tyrosine phosphorylation increased” value [1]?
Answer: Its value is 30 min.

Question: What about the “time of peak muscle IRβ phosphotyrosine increase” value ([2]; fasted rats) of the same substance?
Answer: Its value is 30 min.

Question: And the “increase in phosphotyrosine content in muscle IRβ (PY/IRβ ratio)” value ([2]; fasted rats, 15 minutes post-injection, zero time point set to 1)?
Answer: The value was roughly 30 fold.

Question: What about the “muscle IRβ phosphorylation response (qualitative)” value ([2]; 15, 30, 45 and 60 minutes post injection) of the same substance?
Answer: Its value is “robust response; also recorded: significant increase”.

Question: What about the “activation of the IR and Akt kinase pathway” value ([3]; 0.0325 U/100 g insulin, subconjunctival space, normal rats) of the same substance?
Answer: The value was “activated”.

Question: What about the “retinal IRβ PY content, insulin eye compared to contralateral vehicle eye” value ([3]; subconjunctival insulin, FIG. 8) of the same substance?
Answer: The value was “phosphorylated”.

Question: And the “increase in phosphoserine 473 content of Akt over vehicle injected controls” value (Akt)?
Answer: Its value is 48%.

Question: What about the IGF-IRβ phosphorylation ([4]; 10 nM insulin) of the same substance?
Answer: Its IGF-IRβ phosphorylation is “remained unchanged”.

Question: And the IGF-IRβ phosphorylation ([4]; 100 nM insulin, comparator 1.3 nM IGF-1)?
Answer: The IGF-IRβ phosphorylation was “increased”.

Question: And the “effect on blood glucose values” [5]?
Answer: Its value is “without lowering blood glucose values”.

Question: And the “retinal IRβ phosphotyrosine immunoreactivity, fold greater than baseline” value ([6]; 30 minute time point)?
Answer: Its value is 3 fold.

Question: And the “retinal IRβ phosphotyrosine immunoreactivity, fold greater” value ([6]; within 2 minutes of stimulation, normalized to total IRβ)?
Answer: The value was roughly 4 fold.

Question: What about the “retinal explant IRβ phosphorylation (qualitative)” value ([6]; 2, 5, 15 and 30 minutes, normalized to total IRβ) of the same substance?
Answer: Its value is “significant increase”.
